The results in this text go back to patent US20160303253A1.

In this assay the target is Human trophoblast cell-surface antigen (TROP-2) (human) (UniProt P09758). Description: cell-based or functional assay.
Chain of Human trophoblast cell-surface antigen (TROP-2) (human) (P09758 27-323): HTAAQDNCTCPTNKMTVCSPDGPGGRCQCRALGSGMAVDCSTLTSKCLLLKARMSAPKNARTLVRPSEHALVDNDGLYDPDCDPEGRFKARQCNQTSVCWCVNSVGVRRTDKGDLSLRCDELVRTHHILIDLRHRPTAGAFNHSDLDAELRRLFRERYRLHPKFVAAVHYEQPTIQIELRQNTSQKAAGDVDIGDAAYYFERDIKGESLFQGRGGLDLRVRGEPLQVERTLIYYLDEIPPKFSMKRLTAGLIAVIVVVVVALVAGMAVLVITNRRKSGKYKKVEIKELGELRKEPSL

In the case of hRS7-CL2A-SN-38 (antibody), the ADC/free SN-38 ratio of IC50, in vitro cytotoxicity, BxPC-3 is 2.8; the ADC/free SN-38 ratio of IC50, in vitro cytotoxicity, COLO 205 came to 1.91; the ADC/free SN-38 ratio of IC50, in vitro cytotoxicity, Calu-3 was 1.39; the ADC/free SN-38 ratio of IC50, in vitro cytotoxicity, Capan-1 stood at 2. Besides, the ADC/free SN-38 ratio of IC50, in vitro cytotoxicity, PC-3 was 2.28 and the ADC/free SN-38 ratio of IC50, in vitro cytotoxicity, SK-MES-1 is 2.69.
